Laboratory results from patent publication US20020006903A1.

How the values were obtained:
[1] = biological target: T cell receptor of 2C cytotoxic T lymphocytes; assay: flow cytometry on 2C T cells, varying concentrations of complex
[2] = biological target: T cell receptor of 2C cytotoxic T lymphocytes; assay: cell-based or functional assay
[3] = biological target: T cell receptor of 2C cytotoxic T lymphocytes; assay: flow cytometry on 2C T cells, actively loaded complex, half maximal staining
[4] = biological target: T cell receptor of 2C cytotoxic T lymphocytes; assay: flow cytometry on 2C T cells, actively loaded complex at 0.1 nM
[5] = biological target: T cell receptor of 2C cytotoxic T lymphocytes; assay: flow cytometry on 2C T cells, actively against passively loaded complex
[6] = biological target: T cell receptor of 2C cytotoxic T lymphocytes; assay: flow cytometry on 2C T cells, passively loaded complex
[7] = biological target: T cell receptor of 2C cytotoxic T lymphocytes; assay: flow cytometry on 2C T cells, passively loaded complex, half maximal staining
[8] = biological target: T cell receptor of 2C cytotoxic T lymphocytes; assay: flow cytometry on 2C T cells, actively loaded complex

QL9 peptide-loaded H-2 L^d/Ig complex, sequence (P01897 25-309, one chain of several): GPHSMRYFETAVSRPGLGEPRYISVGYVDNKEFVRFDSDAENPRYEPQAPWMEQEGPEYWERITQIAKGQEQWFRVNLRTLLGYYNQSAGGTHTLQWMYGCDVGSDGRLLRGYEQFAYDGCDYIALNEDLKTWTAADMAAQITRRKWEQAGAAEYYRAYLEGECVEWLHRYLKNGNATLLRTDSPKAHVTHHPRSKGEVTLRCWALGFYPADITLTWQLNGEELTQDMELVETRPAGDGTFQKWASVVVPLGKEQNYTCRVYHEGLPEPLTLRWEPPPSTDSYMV
SIY peptide-loaded H-2 K^b/Ig complex, sequence (P01901 22-305, one chain of several): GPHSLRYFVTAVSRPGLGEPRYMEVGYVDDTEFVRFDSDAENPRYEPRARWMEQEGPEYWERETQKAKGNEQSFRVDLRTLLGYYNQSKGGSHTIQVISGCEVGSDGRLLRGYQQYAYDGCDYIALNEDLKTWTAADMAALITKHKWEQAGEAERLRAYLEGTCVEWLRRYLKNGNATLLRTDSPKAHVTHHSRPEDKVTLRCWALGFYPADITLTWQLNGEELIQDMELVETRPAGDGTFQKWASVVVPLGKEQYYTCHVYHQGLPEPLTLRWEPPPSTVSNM

Substance | EC50 [1] [nM] | half maximal inhibition of target cell lysis by 2C CTL [2] [nM] | target cell lysis by 2C CTL (percent specific lysis, chromium release) [2] [%] | EC50 [3] [nM] | mean channel fluorescence (MCF) at 0.1 nM [4] | fold more effective in staining than the “passively” loaded complex [5] [fold] | concentration required for staining [6] [nM] | EC50 [7] [nM] | 2C CTL mediated lysis of target cells (specific lysis) [2] [%] | concentration of maximal inhibition of proliferation of 2C CTL stimulated by allogeneic splenic cells [2] [µM] | half maximal inhibition of proliferation of 2C CTL [2] [nM] | stimulation index of 2C CTL proliferation ([3H]thymidine) [2] | lowest concentration at which staining was seen [8] [nM]
QL9 peptide-loaded H-2 L^d/Ig complex (from UniProt P01897 25-309) (peptide-MHC) | 1 | 10 | 2 | – | – | – | – | – | – | – | – | – | –
SIY peptide-loaded H-2 K^b/Ig complex (from UniProt P01901 22-305) (peptide-MHC) | 1 | – | – | 1 | 53 | 10 to 100 | 10 | 10 | 35 | 0.02 | 1 | 10 | 0.1
